Measured values reported in the supplement of paper PMC10065799, “High-throughput profiling of sequence recognition by tyrosine kinases and SH2 domains using bacterial peptide display” (eLife, 2023).

Experiments:
[1] = target: Grb2 SH2 (UniProt P62993); assay: SH2 binding enrichment of the phosphorylated peptide, bacterial display (enrichment ratio); higher = better substrate or ligand; peptides without Tyr show the background
[2] = target: c-Src SH2; assay: as above
[3] = target: SHP2-C SH2; assay: as above
[4] = target: Jak2 (UniProt O60674); assay: phosphorylation enrichment, bacterial display (enrichment ratio); higher = better substrate or ligand; peptides without Tyr show the background
[5] = target: Fes (UniProt P07332); assay: as above
[6] = target: EPHB1 (UniProt P54762); assay: as above
[7] = target: MERTK (UniProt Q12866); assay: as above
[8] = test system: c-Abl (mouse); assay: as above
[9] = target: Fyn (UniProt P06241); assay: as above
[10] = target: EPHB2 (UniProt P29323); assay: as above
[11] = target: Hck (UniProt P08631); assay: as above
[12] = test system: AncSZ; assay: as above
[13] = test system: c-Src; assay: as above
[14] = test system: Fer (mouse); assay: as above
[15] = target: FGFR3 (UniProt P22607); assay: as above
[16] = target: FGFR1 (UniProt P11362); assay: as above
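Throughout, for SH2 binding enrichment of the phosphorylated peptide, bacterial display: peptide library displayed on the E. coli surface as eCPX fusions, selected cells deep-sequenced, score is each peptide's frequency after selection divided by its frequency in the input.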
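Throughout, for phosphorylation enrichment, bacterial display: 11-residue human phosphosite peptides and single-mutation variants displayed on the E. coli surface, counted by deep sequencing, each peptide's frequency after selection divided by its frequency in the unselected input library; frequency after pTyr selection over input frequency; kinase dosed for 20-30% of maximal phosphorylation in three min.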

Chain of Fes (P07332 whole entry, looked up): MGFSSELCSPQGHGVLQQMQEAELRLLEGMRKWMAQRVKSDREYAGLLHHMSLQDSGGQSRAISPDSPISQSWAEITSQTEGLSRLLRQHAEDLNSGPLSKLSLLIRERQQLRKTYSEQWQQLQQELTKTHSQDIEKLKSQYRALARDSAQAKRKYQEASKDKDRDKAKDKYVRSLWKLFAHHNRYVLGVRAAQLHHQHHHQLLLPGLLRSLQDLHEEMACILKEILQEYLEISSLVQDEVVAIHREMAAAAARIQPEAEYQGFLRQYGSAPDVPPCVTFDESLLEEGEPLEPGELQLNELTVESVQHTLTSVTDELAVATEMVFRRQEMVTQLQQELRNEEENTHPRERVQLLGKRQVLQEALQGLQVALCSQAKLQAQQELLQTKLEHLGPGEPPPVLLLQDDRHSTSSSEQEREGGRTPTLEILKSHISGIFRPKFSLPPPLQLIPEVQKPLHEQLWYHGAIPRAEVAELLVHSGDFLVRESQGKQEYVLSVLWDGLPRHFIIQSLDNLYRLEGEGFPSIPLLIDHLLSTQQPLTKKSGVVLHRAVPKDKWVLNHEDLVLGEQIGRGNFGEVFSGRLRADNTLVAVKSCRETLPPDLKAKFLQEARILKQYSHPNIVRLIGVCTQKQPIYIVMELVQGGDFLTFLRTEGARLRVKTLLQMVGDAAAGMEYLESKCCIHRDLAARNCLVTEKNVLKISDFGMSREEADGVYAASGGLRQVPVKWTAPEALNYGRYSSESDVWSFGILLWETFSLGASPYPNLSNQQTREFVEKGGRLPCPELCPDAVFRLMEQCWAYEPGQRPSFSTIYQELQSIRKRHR
Chain of MERTK (Q12866 whole entry, looked up): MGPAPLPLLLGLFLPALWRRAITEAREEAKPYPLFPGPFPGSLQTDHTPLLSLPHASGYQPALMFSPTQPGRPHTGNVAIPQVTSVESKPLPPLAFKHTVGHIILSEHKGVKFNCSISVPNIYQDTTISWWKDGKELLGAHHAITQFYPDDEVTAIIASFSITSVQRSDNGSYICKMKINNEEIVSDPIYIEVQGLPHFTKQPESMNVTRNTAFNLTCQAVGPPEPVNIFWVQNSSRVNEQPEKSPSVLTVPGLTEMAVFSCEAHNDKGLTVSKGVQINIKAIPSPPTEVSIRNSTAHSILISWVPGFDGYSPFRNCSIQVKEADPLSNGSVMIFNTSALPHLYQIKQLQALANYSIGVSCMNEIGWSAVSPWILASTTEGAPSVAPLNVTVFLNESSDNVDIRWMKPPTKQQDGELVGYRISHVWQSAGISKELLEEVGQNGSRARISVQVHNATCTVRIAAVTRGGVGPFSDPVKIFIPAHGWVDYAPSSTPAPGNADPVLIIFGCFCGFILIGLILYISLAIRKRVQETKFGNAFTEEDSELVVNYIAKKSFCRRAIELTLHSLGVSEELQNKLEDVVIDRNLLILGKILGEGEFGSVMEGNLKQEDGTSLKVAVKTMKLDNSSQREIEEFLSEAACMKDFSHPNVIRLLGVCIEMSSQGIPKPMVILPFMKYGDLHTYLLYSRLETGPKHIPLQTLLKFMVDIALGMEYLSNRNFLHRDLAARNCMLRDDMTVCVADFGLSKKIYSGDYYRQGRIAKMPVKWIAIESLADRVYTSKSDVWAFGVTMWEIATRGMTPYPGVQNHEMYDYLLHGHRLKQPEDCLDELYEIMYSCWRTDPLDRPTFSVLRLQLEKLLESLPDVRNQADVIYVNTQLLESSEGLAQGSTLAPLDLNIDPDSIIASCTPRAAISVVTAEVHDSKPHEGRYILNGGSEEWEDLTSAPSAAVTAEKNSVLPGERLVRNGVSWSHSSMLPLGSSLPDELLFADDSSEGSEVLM
Chain of Fyn (P06241 whole entry, looked up): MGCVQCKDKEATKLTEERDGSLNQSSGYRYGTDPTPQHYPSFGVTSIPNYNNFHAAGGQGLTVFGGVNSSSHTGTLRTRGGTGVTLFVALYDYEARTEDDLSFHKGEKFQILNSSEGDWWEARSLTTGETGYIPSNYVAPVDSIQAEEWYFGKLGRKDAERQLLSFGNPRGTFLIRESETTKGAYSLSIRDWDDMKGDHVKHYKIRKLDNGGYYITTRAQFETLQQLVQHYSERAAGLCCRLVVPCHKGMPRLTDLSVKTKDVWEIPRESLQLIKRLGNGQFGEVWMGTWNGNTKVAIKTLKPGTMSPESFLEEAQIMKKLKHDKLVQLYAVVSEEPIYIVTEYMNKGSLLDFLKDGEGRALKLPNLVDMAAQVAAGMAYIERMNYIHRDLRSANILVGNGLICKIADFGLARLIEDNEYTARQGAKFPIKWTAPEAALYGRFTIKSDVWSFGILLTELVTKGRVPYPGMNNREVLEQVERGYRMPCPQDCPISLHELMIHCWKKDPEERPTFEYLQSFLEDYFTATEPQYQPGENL
Chain of EPHB2 (P29323 whole entry, looked up): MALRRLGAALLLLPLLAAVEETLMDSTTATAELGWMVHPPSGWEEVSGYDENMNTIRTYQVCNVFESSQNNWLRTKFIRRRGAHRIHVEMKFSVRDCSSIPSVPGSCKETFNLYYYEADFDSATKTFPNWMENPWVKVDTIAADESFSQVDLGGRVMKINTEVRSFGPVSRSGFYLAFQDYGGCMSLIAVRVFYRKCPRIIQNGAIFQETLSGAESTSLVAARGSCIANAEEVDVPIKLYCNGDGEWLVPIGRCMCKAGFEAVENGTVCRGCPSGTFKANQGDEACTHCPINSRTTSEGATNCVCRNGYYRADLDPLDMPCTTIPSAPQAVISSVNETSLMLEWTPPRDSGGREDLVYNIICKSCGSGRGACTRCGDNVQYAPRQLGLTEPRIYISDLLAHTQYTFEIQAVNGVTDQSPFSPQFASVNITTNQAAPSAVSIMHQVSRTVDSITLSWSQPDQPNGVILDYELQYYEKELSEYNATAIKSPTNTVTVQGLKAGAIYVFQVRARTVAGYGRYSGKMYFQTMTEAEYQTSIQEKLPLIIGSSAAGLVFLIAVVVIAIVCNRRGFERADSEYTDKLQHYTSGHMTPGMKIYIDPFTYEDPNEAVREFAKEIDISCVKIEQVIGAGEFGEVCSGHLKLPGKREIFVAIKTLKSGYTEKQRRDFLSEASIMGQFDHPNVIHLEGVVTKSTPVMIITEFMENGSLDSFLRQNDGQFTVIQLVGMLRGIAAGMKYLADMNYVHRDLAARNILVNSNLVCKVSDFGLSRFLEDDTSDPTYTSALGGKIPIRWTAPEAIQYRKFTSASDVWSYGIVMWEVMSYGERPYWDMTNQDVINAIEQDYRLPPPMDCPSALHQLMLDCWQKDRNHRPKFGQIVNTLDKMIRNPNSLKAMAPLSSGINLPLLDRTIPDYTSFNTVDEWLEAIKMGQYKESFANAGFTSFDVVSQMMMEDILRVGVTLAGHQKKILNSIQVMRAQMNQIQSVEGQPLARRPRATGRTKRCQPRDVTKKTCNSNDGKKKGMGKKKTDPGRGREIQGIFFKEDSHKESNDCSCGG
Chain of FGFR1 (P11362 whole entry, looked up, the tested form may be a part): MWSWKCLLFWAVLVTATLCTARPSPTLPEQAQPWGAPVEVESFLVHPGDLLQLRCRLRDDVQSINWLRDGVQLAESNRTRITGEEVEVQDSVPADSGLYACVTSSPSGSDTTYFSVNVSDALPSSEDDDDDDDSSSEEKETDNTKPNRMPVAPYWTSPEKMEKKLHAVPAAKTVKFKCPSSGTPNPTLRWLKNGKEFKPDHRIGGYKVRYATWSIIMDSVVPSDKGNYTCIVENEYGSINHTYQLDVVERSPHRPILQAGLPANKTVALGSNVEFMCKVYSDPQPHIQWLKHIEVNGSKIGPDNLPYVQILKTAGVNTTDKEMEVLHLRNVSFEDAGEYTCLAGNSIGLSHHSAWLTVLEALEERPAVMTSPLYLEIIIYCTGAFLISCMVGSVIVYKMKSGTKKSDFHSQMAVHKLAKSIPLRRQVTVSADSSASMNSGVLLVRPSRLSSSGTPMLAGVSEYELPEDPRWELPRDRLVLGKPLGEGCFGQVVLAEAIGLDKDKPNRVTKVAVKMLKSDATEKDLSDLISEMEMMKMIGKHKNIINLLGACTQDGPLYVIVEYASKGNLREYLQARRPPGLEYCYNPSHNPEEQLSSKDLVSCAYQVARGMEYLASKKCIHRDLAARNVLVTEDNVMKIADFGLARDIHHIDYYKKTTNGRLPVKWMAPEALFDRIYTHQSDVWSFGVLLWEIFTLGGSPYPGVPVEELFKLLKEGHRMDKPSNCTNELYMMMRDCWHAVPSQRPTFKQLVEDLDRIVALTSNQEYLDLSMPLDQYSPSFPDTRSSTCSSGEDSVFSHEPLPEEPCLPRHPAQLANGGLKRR
Chain of Hck (P08631 whole entry, looked up): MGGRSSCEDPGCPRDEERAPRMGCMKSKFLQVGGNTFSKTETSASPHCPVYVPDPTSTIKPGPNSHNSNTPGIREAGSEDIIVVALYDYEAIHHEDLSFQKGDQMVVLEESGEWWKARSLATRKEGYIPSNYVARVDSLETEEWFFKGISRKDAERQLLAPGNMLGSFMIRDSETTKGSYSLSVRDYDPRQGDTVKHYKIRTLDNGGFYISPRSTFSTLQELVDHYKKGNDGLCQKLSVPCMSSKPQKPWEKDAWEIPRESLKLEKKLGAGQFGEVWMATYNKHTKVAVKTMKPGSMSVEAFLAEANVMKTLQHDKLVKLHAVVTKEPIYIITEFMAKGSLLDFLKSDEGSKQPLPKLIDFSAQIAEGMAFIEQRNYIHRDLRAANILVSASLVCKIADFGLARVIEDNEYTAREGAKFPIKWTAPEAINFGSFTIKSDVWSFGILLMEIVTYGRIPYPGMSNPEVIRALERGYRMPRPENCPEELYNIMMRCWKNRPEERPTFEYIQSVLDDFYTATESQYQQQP

Sequence	SH2 binding enrichment [1]	SH2 binding enrichment [2]	SH2 binding enrichment [3]	phosphorylation enrichment [4]	phosphorylation enrichment [5]	phosphorylation enrichment [6]	phosphorylation enrichment [7]	phosphorylation enrichment [8]	phosphorylation enrichment [9]	phosphorylation enrichment [10]	phosphorylation enrichment [11]	phosphorylation enrichment [12]	phosphorylation enrichment [13]	phosphorylation enrichment [14]	phosphorylation enrichment [15]	phosphorylation enrichment [16]
NFSKMYCNPDA [KNL1_Y489_A486S_YF]	0.751	2.54	0.619	0.894	0.924	0.562	0.524	0.699	0.486	0.613	0.488	0.94	0.426	0.563	0.802	0.46
NGPDVYVLPVT [AATK_Y93_L97V]	0.902	0.594	0.617	0.837	1.05	0.723	2.73	0.787	2.25	0.644	0.776	1.79	1.2	0.453	0.751	0.72
NHRNQYQALKP [CLSPN_Y887]	1.06	0.915	1.05	0.463	0.534	0.375	0.531	0.476	0.335	0.377	0.504	0.739	0.404	0.356	0.438	0.351
NIRKKYFRAIL [CHD7_Y1217_Q1214R_YF]	0.764	0.356	0.544	0.496	0.661	0.466	0.555	0.633	0.45	0.6	0.451	0.583	0.504	0.394	0.546	0.48
NNIDFYKKTTN [FGFR2_Y657_YF]	0.729	0.515	0.45	0.722	0.695	0.639	0.364	0.498	0.393	0.397	0.435	0.637	0.422	0.388	0.467	0.338
NPPGMYPVTGP [LPP_Y346]	0.638	0.418	0.547	0.482	0.531	0.375	0.348	0.506	0.336	0.325	0.375	0.649	0.389	0.649	0.396	0.394
NRSSLYLVAGP [KIAA1614_Y1083]	0.756	0.543	0.92	0.698	0.91	0.591	1.09	0.642	0.534	0.517	0.619	0.915	0.434	0.495	0.607	0.556
NRVEIYDKTVE [CYFIP1_Y108_E109D]	1.15	0.798	0.504	0.755	0.938	0.495	0.4	0.576	0.443	0.521	0.682	0.905	0.47	0.435	0.519	0.534
NTGVYYDLYGG [PTPN11_Y63_D61V]	0.95	2.56	0.644	2.33	1.18	6.16	7.75	0.715	6.07	5.04	6.5	1.88	5.31	2.49	10.8	13.7
NTVLGYFIGCI [GARS1_Y408_R412C]	0.906	0.438	0.514	1.18	1.31	0.653	0.381	0.826	0.491	0.63	0.467	1.19	0.465	0.598	0.828	0.457
NVADHYRVYKP [ATP6V0D2_Y271_G272R]	0.619	0.469	0.517	0.561	0.767	0.54	0.426	0.703	0.501	0.574	0.384	0.721	0.412	0.433	0.479	0.489
NVGGKYSFLKV [GRM3_Y478_YF]	1.02	0.976	1.46	0.663	0.739	0.472	0.456	0.476	0.306	0.378	0.446	0.608	0.392	0.357	0.434	0.369
NVTRKYTRQIL [MAP3K2_Y463]	0.853	0.477	0.644	0.339	0.411	0.333	0.319	0.397	0.372	0.264	0.265	0.363	0.373	0.305	0.353	0.316
PAVGIYNDNIN [CDCP1_Y707]	0.749	0.481	0.729	0.925	1.08	0.806	0.641	0.71	1.29	0.685	1.17	1.07	1.12	0.6	0.575	0.612
PDDPDYSLVDD [PSTPIP2_Y323_N322D]	0.642	0.665	0.576	2.02	1.97	1.13	0.668	1.04	0.569	0.963	0.707	1.76	0.648	0.894	1.01	0.568
PDGHEYIYVDP [PDGFRA_Y572]	2.06	0.752	0.748	1.81	1.39	3.21	1.46	2.84	1.32	2.66	1.6	5.55	3.24	2.64	7.36	11.7
PDGVEYLKNDP [GRIN3A_Y831]	0.929	0.578	0.479	0.929	1.36	0.693	0.389	0.709	0.851	0.524	1	1.54	0.496	0.75	0.771	0.537
PDMHSYMVRFN [GRIN2D_Y732_YF]	0.909	0.474	0.548	1.14	0.931	0.488	0.651	0.811	0.629	0.69	0.641	0.991	1.15	0.494	0.807	0.711
PDSVDYPKKGY [CTSK_Y121_R122P]	0.841	0.601	0.724	0.707	0.654	0.529	0.537	0.544	0.759	0.951	0.614	0.917	0.569	0.832	0.654	0.56
PEADKYCLTYA [FGG_Y300_R301C]	0.882	0.687	0.778	1.38	1.2	0.722	0.477	0.917	0.691	0.599	0.601	1.27	0.821	0.735	1.09	0.486
PESCLYKESWL [IQGAP2_Y630]	0.916	0.523	1.06	2.09	2.81	1.29	1.2	1.46	1.21	1.2	1.5	2.25	0.775	1.18	2.14	1.55

Now from value to sequence, other results behind:

SH2 binding enrichment [1]	SH2 binding enrichment [2]	SH2 binding enrichment [3]	Sequence	phosphorylation enrichment [4]	phosphorylation enrichment [5]	phosphorylation enrichment [6]	phosphorylation enrichment [7]	phosphorylation enrichment [8]	phosphorylation enrichment [9]	phosphorylation enrichment [10]	phosphorylation enrichment [11]	phosphorylation enrichment [12]	phosphorylation enrichment [13]	phosphorylation enrichment [14]	phosphorylation enrichment [15]	phosphorylation enrichment [16]
0.685	0.427	0.618	NGQAVYAACQT [XDH_Y1092]	0.378	0.706	2.24	1.64	3.5	4.76	2.2	4.26	0.545	3.51	2.4	0.371	0.506
0.831	0.673	0.698	NLVSEYQQYQD [TUBB3_Y422_D417N]	0.968	1.05	0.582	0.44	0.679	0.592	0.693	0.606	1.37	0.541	0.508	0.726	0.531
0.636	1.67	9.73	NMRSTYAKLAA [SEC22B_Y193_H190R]	0.587	0.561	0.373	0.49	0.453	0.407	0.397	0.456	0.563	0.444	0.439	0.403	0.359
1.06	0.517	0.937	NPQKSYFIRLY [WAS_Y83]	1.07	1.15	0.61	0.353	0.724	0.372	0.637	0.452	1.16	0.349	0.542	0.745	0.486
0.847	0.55	0.785	NTADFYDLFGG [PTPN11_Y63_G60A_YF]	1.2	1.12	0.628	2.3	0.8	4.53	0.591	3.02	0.993	4.45	1.6	0.608	0.515
0.667	0.378	0.656	NTFEKYLGEEF [TF_Y669_YF]	0.922	1.21	0.587	0.379	0.641	0.454	0.572	0.479	1.08	0.429	0.491	0.75	0.509
0.666	0.376	0.439	NTGDDYDLFGG [PTPN11_Y63_Y62D_YF]	1.05	1.21	0.586	0.412	0.826	0.722	0.608	0.618	1.42	1.02	0.623	0.652	0.546
0.804	0.522	0.521	NTGDDYDLYGG [PTPN11_Y63_Y62D]	0.912	1.17	0.581	0.494	0.684	1.51	1.05	2.47	1.33	1.65	0.775	0.683	0.51
1.01	0.988	0.747	NTGDYCDLYGG [PTPN11_Y63_Y63C]	1.04	1.16	9.45	0.838	0.877	2.26	11.3	3.78	2.71	2.91	1.48	4.75	7.05
0.743	2.16	0.607	NTYEKYLEEEY [TF_Y669_G671E]	1.6	1.93	0.802	0.563	1.27	0.535	0.686	0.608	1.6	0.9	0.563	0.86	0.553
0.875	0.614	0.84	NYRPGYNNFYN [USH2A_Y467]	0.651	0.705	0.616	0.551	0.514	0.567	0.602	0.621	0.697	0.516	0.711	0.606	0.637
0.953	0.642	0.613	PDKRIYQFTAS [SKAP2_Y197_A202S]	0.637	0.684	0.491	0.846	0.551	0.826	0.629	0.698	0.691	0.765	0.802	0.649	0.831
